These results are taken from patent US20080145840A1.

The test system of one series is C[C@H](N)C(=O)O. As to the kind of experiment: purified protein, by the assay type.
Series [1] relates to Nc1ncnc2c1ncn2[C@@H]1O[C@H](COP(=O)(O)OP(=O)(O)OP(=O)(O)O)[C@@H](O)[C@H]1O. In words: purified protein, by the assay type.

Consider E. coli MurC (Escherichia coli K-12), for which the Km – broadly, the concentration of substrate that gives half-maximal velocity – stood at 44 µM with C[C@H](N)C(=O)O (other: ITC, pH 8.0); 56 µM with C[C@H](N)C(=O)O (other: Phosphate detection); 61 µM in series [1] (other: ITC, pH 8.0); 101 µM in series [1] (other: Phosphate detection).
